PMC8016844

Key:
[1] = target: isolated CSH3 domain of Grb2 (Grb2_(CSH3)); assay: MST; target protein labelled with Atto 488 NHS ester, 100 nM; unlabelled ligand serially diluted; Monolith NT.115; 25 °C; 20 mM HEPES pH 7.5, 150 mM NaCl, 0.5 mM TCEP, 0.005% Tween 20
Grb2 (Homo sapiens) = Grb2 (Homo sapiens) (UniProt P62993); details: cited from earlier work
[2] = target: Shp2 N-terminal SH2 domain (Shp2_(NSH2)) (UniProt Q06124); assay: MST; target protein labelled with Atto 488 NHS ester, 100 nM; unlabelled ligand serially diluted; Monolith NT.115; 25 °C; 20 mM HEPES pH 7.5, 150 mM NaCl, 0.5 mM TCEP, 0.005% Tween 20

| Substance | Kd [1] | other results |
| --- | --- | --- |
| Shp2 PTP domain peptide VERGKS366KCVK369YWPDEY | 122 µM | – |
| Grb2 (from UniProt P62993) | – | Kd (Grb2 (Homo sapiens)): 0.8 µM |
| isolated CSH3 domain of Grb2 (Grb2_(CSH3)) (domain or fragment) | – | Kd [2]: 207 µM |

Continued, in another order:

| Kd [1] | Substance | other results |
| --- | --- | --- |
| 173 µM | Shp2 PTP domain peptide TKCNNS322KPKK325SYIATQ | – |
| 18.1 µM | Shp2 PTP domain peptide WPDHGV429PSDP432GGVLDF | – |
